# What was measured:
# [1] = test system: CC(=O)N[C@H]1[C@H]([C@H](O)[C@H](O)CO)OC(O)(C(=O)O)C[C@@H]1O; assay: purified protein; conditions: Mg2+ active site; binds after CTP
# [2] = test system: Nc1ccn([C@@H]2O[C@H](COP(=O)(O)OP(=O)(O)OP(=O)(O)O)[C@@H](O)[C@H]2O)c(=O)n1; assay: purified protein; conditions: Mg2+ CTP binds prior to Neu5Ac
substance,measurement,setting,value
NmB CMP-sialic acid synthetase (CSS) (Neisseria meningitidis MC58),Km,[1],37 µM
same,Km,[2],22 µM

# — article PMC12654856, “Exploring the Scope of Functionalized N-Acylneuraminic Acid β-Methyl Glycosides as Inhibitors of Neisseria meningitidis CMP-Sialic Acid Synthetase” (Molecules, 2025)
